Source: the supplement of paper PMC9732359
± gives the uncertainty stated by the source.

Test: protein stability index of a GFP-peptide fusion (yeast GPS) (PSI 1-4); higher = more stable; sorted into four equal gates, so the index is relative within each strain
Conditions: doa10∆
Procedure, shortened: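 Peptides tiling yeast proteins in 17-residue segments were fused downstream of GFP, with Cherry expressed from the same plasmid. As a pooled library in yeast, mid-log cultures grown in leucine-free medium were sorted into four equal gates by GFP/Cherry fluorescence ratio. Gate plasmids were PCR-amplified and Illumina-sequenced, and barcodes linked reads to strains. Each peptide received a protein stability index equal to the sum of each gate's read frequency times its gate number.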

Sequence	protein stability index
LKNKKEIYRISFQLSKI [RPS9A]	3.03 ± 0.12
LKNVEETQEIKENDTVM [ESC2]	2.86 ± 0.097
LKPEIEKLTSKSLDEQL [LRP1]	3.22 ± 0.083
LKSFTESTAGSASTSAT [ECM29]	2.82 ± 0.067
LKSGLPLSGLLFKNYRF [YMR129W/POM152]	3.65 ± 0.18
LKSIESLKLENSDLEGK [SMC2]	3.07 ± 0.13
LKTEKIFKEINEHSTSY [FAS1]	3.29 ± 0.22
LKVQKLSRPSLPKIKTV [RPL35A]	2.41 ± 0.062
LKYPELSIKNSFIINFI [NUT1]	1.99 ± 0.062
LLALRERRMQVTAEDFK [RPT2]	2.79 ± 0.13
LLFKARLQQQQAQAQAQ [GAL11]	1.3 ± 0.081
LLGEGESKLKIDPDTKA [RPB11]	2.93 ± 0.19
LLIADSRRPEPKKFGGK [RPS16A]	3 ± 0.091
LLINTNFNKFFKIWHGE [PCI8]	1.37 ± 0.04
LLIRSKTEDPKGGIIAS [YML031W/NDC1]	2.37 ± 0.14
LLKHPFKAIHGSQLRLS [YCS4]	1.67 ± 0.046
LLKKIIFEKELMYQIKK [SRB4]	2.8 ± 0.073
LLKLIEPYVAYGYPSYS [RPL7A]	2.07 ± 0.05
LLKSNDPLLSLYNFLHK [RGR1]	2.31 ± 0.056
LLKSTGLHPFEVAQLGS [RPB4]	1.94 ± 0.12
LLLITHHSWSQSDLEII [ARP9]	2.36 ± 0.08
LLLKKIIKDYVLDIVPG [SRB4]	2.74 ± 0.094
LLNVSVNITKFSKFERS [SKI6]	2.32 ± 0.075
LLREYDILSQILYGLVD [YJL039C/NUP192]	2.49 ± 0.081
LLSKIMLNLIDDVKNIL [RPN6]	2.2 ± 0.13
LLSSSNFEATKKSVLKQ [COR1]	2.81 ± 0.29

Sequence	protein stability index
LLTSAGCKNGSFTLLNQ [NUT1]	2.21 ± 0.12
LLVDIQKYNQIQKQIET [SMC2]	1.92 ± 0.055
LLVDKDANGVSLFELIV [YJL039C/NUP192]	3.02 ± 0.051
LLYYIPSLELSAEYLQM [YJR042W/NUP85]	1.12 ± 0.09
LMATEYQDIEGGFEDVE [RPB2]	3.43 ± 0.14
LMEEIESLKKELQIFKT [YIL149C/MLP2]	2.94 ± 0.094
LMEFLCVVSTDSTNLSD [ECM29]	1.92 ± 0.059
LMLEDAVTEREVLVTPG [MCD1]	1.94 ± 0.2
LNDPSLKIQFILSTTLD [SIN4]	1.11 ± 0.055
LNELSAKDKEIYNKMIG [RPN13]	2.8 ± 0.092
LNIDFGSDKQMFTQIYL [YML103C/NUP188]	3.17 ± 0.14
LNIGKNFAHSDSLSVPK [SIR4]	3.17 ± 0.085
LNIKPLLDAGCKVVAEM [SKP1]	2.44 ± 0.083
LNLLSQNNTTKFHSELQ [RPN12]	2.47 ± 0.091
LNQINGLNNDFLFQNIN [GRR1]	1.6 ± 0.1
LNRIINHMLIDSLNQLE [RGR1]	3.24 ± 0.15
LNRLLRLIVDPNIADYI [PRP8]	1.83 ± 0.057
LNTFGSKICLSHFSLDQ [ITC1]	2.48 ± 0.06
LNTLNNVVEIWVFSYLR [SIR3]	1.56 ± 0.043
LPAAVSKSLQESGDTQE [RPC82]	2.37 ± 0.096
LPDPKPLPLDLNVQVWH [ITC1]	2.8 ± 0.064
LPEILNVLCVNIKSNDF [ECM29]	1.56 ± 0.046
LPELWALLNFVLPKIFN [SNF2]	2.38 ± 0.074
LPENIILTSLMRSKLEK [CSN9]	2.38 ± 0.084
LPHITQLEGFESRKAFF [RPB2]	2.92 ± 0.082
LPLATQQQVLNKLRQQA [SNF5]	2.56 ± 0.27

Sequence	protein stability index
LPLISTDVLEISKQRTF [YMR129W/POM152]	2.17 ± 0.068
LPLLILENSSRSPRVVT [NUT1]	1.76 ± 0.054
LPLTEHKSPNLSLMLES [SRB4]	2.43 ± 0.066
LPMDTNLFKINSIDVPI [YMR129W/POM152]	1.98 ± 0.048
LPPPPPPPGLDELETKA [PRP8]	3.13 ± 0.056
LPQSEWKAPSSIVLDSE [DIS3]	3 ± 0.062
LPRKEVDDVLGGGWDNV [RPC11]	3.17 ± 0.1
LPSGRQDGVLLVALSNE [FAS2]	2.4 ± 0.087
LPVKWETTTQFKATHIL [FAS1]	2.52 ± 0.06
LQCHISGTTNFMRNGLL [UBP6]	1.64 ± 0.1
LQEKISTELNNKQYELF [SWI1]	2.51 ± 0.077
LQFHVATYMDNDIAGQP [RPO21]	2.6 ± 0.07
LQFRPAPMYILDEVDAA [SMC2]	1.59 ± 0.2
LQGQMEKIMILLVPLAL [CSN12]	1.84 ± 0.048
LQNKSFKSVLPIVLLNT [UBP6]	1.91 ± 0.067
LQNLQRIIRKKIFIAVV [RRI2]	1.21 ± 0.078
LQPFWFRVNNASINTSA [ECM29]	1.66 ± 0.1
LQPPKTSSRGRDHKSYS [SMC4]	2.9 ± 0.056
LQQQQQVVTTVASQSPH [SNF6]	1.81 ± 0.08
LQRHLSLGIRPCLRKYE [RRP43]	2.61 ± 0.061
LQRPTATDEESVRLQRF [CSN12]	2.75 ± 0.089
LQSLNESKDLLRASFNK [SRB4]	3.16 ± 0.13
LQVGDVVSTTAVIESVV [FAS1]	2.33 ± 0.056
LRAAQQQWGNDFYKRDP [FAS2]	2.44 ± 0.068
LRDDTLPKAWISLAVEG [COR1]	2.55 ± 0.059

Same assay, conditions: pdr5∆

Sequence	protein stability index
LKNKKEIYRISFQLSKI [RPS9A]	3.09 ± 0.084
LKNVEETQEIKENDTVM [ESC2]	3 ± 0.075
LKPEIEKLTSKSLDEQL [LRP1]	3.26 ± 0.07
LKSFTESTAGSASTSAT [ECM29]	3.14 ± 0.061
LKSGLPLSGLLFKNYRF [YMR129W/POM152]	2.52 ± 0.2
LKSIESLKLENSDLEGK [SMC2]	2.8 ± 0.099
LKTEKIFKEINEHSTSY [FAS1]	3.48 ± 0.2
LKVQKLSRPSLPKIKTV [RPL35A]	3.11 ± 0.072
LKYPELSIKNSFIINFI [NUT1]	2 ± 0.045
LLALRERRMQVTAEDFK [RPT2]	2.8 ± 0.17
LLFIVGQVAIKTLVYLE [YCS4]	1.74 ± 0.2
LLFKARLQQQQAQAQAQ [GAL11]	1.59 ± 0.075
LLIADSRRPEPKKFGGK [RPS16A]	3.12 ± 0.077
LLINTNFNKFFKIWHGE [PCI8]	1.38 ± 0.04
LLIRSKTEDPKGGIIAS [YML031W/NDC1]	2.36 ± 0.085
LLKHPFKAIHGSQLRLS [YCS4]	1.62 ± 0.043
LLKKIIFEKELMYQIKK [SRB4]	2.67 ± 0.083
LLKLIEPYVAYGYPSYS [RPL7A]	2.22 ± 0.053
LLKSNDPLLSLYNFLHK [RGR1]	2.23 ± 0.053
LLKSTGLHPFEVAQLGS [RPB4]	1.81 ± 0.27
LLLITHHSWSQSDLEII [ARP9]	1.68 ± 0.048
LLLKKIIKDYVLDIVPG [SRB4]	2.52 ± 0.084
LLNVSVNITKFSKFERS [SKI6]	2.49 ± 0.049
LLREYDILSQILYGLVD [YJL039C/NUP192]	2.06 ± 0.12

Sequence	protein stability index
LLSKIMLNLIDDVKNIL [RPN6]	1.4 ± 0.1
LLTSAGCKNGSFTLLNQ [NUT1]	2.32 ± 0.067
LLVDIQKYNQIQKQIET [SMC2]	1.86 ± 0.05
LLVDKDANGVSLFELIV [YJL039C/NUP192]	3.05 ± 0.055
LLYYIPSLELSAEYLQM [YJR042W/NUP85]	2.03 ± 0.18
LMATEYQDIEGGFEDVE [RPB2]	3.31 ± 0.11
LMEEIESLKKELQIFKT [YIL149C/MLP2]	2.96 ± 0.068
LMEFLCVVSTDSTNLSD [ECM29]	1.65 ± 0.056
LNDPSLKIQFILSTTLD [SIN4]	1.45 ± 0.074
LNELSAKDKEIYNKMIG [RPN13]	2.65 ± 0.11
LNIDFGSDKQMFTQIYL [YML103C/NUP188]	2.99 ± 0.15
LNIGKNFAHSDSLSVPK [SIR4]	3 ± 0.075
LNIKPLLDAGCKVVAEM [SKP1]	2.51 ± 0.081
LNLLSQNNTTKFHSELQ [RPN12]	2.24 ± 0.078
LNQINGLNNDFLFQNIN [GRR1]	2.13 ± 0.088
LNRIINHMLIDSLNQLE [RGR1]	2.96 ± 0.23
LNRLLRLIVDPNIADYI [PRP8]	1.93 ± 0.05
LNTFGSKICLSHFSLDQ [ITC1]	2.18 ± 0.042
LNTLNNVVEIWVFSYLR [SIR3]	1.6 ± 0.063
LPAAVSKSLQESGDTQE [RPC82]	2.74 ± 0.11
LPDPKPLPLDLNVQVWH [ITC1]	2.72 ± 0.051
LPEILNVLCVNIKSNDF [ECM29]	1.58 ± 0.047
LPELWALLNFVLPKIFN [SNF2]	1.89 ± 0.062
LPENIILTSLMRSKLEK [CSN9]	3.05 ± 0.063

Sequence	protein stability index
LPHITQLEGFESRKAFF [RPB2]	2.96 ± 0.06
LPLISTDVLEISKQRTF [YMR129W/POM152]	2.74 ± 0.06
LPLLILENSSRSPRVVT [NUT1]	2 ± 0.046
LPLTEHKSPNLSLMLES [SRB4]	3.18 ± 0.06
LPMDTNLFKINSIDVPI [YMR129W/POM152]	1.92 ± 0.035
LPPPPPPPGLDELETKA [PRP8]	3.15 ± 0.057
LPQSEWKAPSSIVLDSE [DIS3]	3.34 ± 0.069
LPRKEVDDVLGGGWDNV [RPC11]	3.63 ± 0.14
LPSGRQDGVLLVALSNE [FAS2]	2.52 ± 0.097
LPVKWETTTQFKATHIL [FAS1]	2.32 ± 0.057
LQCHISGTTNFMRNGLL [UBP6]	1.66 ± 0.081
LQEKISTELNNKQYELF [SWI1]	2.74 ± 0.072
LQFHVATYMDNDIAGQP [RPO21]	2.53 ± 0.073
LQFRPAPMYILDEVDAA [SMC2]	1.89 ± 0.25
LQGQMEKIMILLVPLAL [CSN12]	1.63 ± 0.04
LQNKSFKSVLPIVLLNT [UBP6]	1.45 ± 0.1
LQNLQRIIRKKIFIAVV [RRI2]	1.19 ± 0.073
LQPFWFRVNNASINTSA [ECM29]	1.49 ± 0.068
LQPPKTSSRGRDHKSYS [SMC4]	3.21 ± 0.061
LQQQQQVVTTVASQSPH [SNF6]	1.92 ± 0.074
LQRHLSLGIRPCLRKYE [RRP43]	2.66 ± 0.063
LQRPTATDEESVRLQRF [CSN12]	2.98 ± 0.12
